Source: PMC7337937, “CryoEM structures of human CMG–ATPγS–DNA and CMG–AND-1 complexes” (Nucleic Acids Research, 2020)

Experiments:
[1] = target: the molecule itself; assay: cryo-EM structure; CMGA: AND-1 co-expressed with the CMG subunits in HEK293-F, co-purified; 1 mM ATPγS added, glutaraldehyde cross-linked before grid preparation; 6.77 Å map, CMG structure and AND-1 trimer crystal structure docked as rigid bodies
[2] = target: human CMG helicase (Cdc45-MCM2-7-GINS) (Homo sapiens, UniProt O75419;P49736;P25205-2;P33991;P33992;Q14566;P33993;Q14691;Q9Y248;Q9BRX5;Q9BRT9 …); assay: cryo-EM structure (3.29 A); 100 uM ATPgS, 5 mM Mg acetate; ATPgS-Mg2+ at MCM6, MCM4, MCM7; ADP at MCM2, MCM3; MCM5 apo; Buffer S: 25 mM HEPES pH 7.5, 50 mM KCl, 5 mM Mg acetate, 2 mM DTT, with 100 uM ATPgS and 4 uM fork DNA, loaded on StrepTrap-bound CMG; eluted with 15 mM desthiobiotin; binding temperature not stated; conditions: protein: recombinant; tags: MCM4 N-terminal His8-TEV; Psf2 C-terminal TEV-2xStrepII; copies: 1;1;1;1;1;1;1;1;1;1;1; fork: 40 bp duplex 1:1-40 2:31-70; 30 nt unpaired tails, 3' poly-dT (strand 1) and 5' GC-rich (strand 2)

B1: human AND-1, recombinant full length (natural protein, UniProt O75717 1-1129, looked up)
chain: MPATRKPMRYGHTEGHTEVCFDDSGSFIVTCGSDGDVRIWEDLDDDDPKFINVGEKAYSCALKSGKLVTAVSNNTIQVHTFPEGVPDGILTRFTTNANHVVFNGDGTKIAAGSSDFLVKIVDVMDSSQQKTFRGHDAPVLSLSFDPKDIFLASASCDGSVRVWQISDQTCAISWPLLQKCNDVINAKSICRLAWQPKSGKLLAIPVEKSVKLYRRESWSHQFDLSDNFISQTLNIVTWSPCGQYLAAGSINGLIIVWNVETKDCMERVKHEKGYAICGLAWHPTCGRISYTDAEGNLGLLENVCDPSGKTSSSKVSSRVEKDYNDLFDGDDMSNAGDFLNDNAVEIPSFSKGIINDDEDDEDLMMASGRPRQRSHILEDDENSVDISMLKTGSSLLKEEEEDGQEGSIHNLPLVTSQRPFYDGPMPTPRQKPFQSGSTPLHLTHRFMVWNSIGIIRCYNDEQDNAIDVEFHDTSIHHATHLSNTLNYTIADLSHEAILLACESTDELASKLHCLHFSSWDSSKEWIIDLPQNEDIEAICLGQGWAAAATSALLLRLFTIGGVQKEVFSLAGPVVSMAGHGEQLFIVYHRGTGFDGDQCLGVQLLELGKKKKQILHGDPLPLTRKSYLAWIGFSAEGTPCYVDSEGIVRMLNRGLGNTWTPICNTREHCKGKSDHYWVVGIHENPQQLRCIPCKGSRFPPTLPRPAVAILSFKLPYCQIATEKGQMEEQFWRSVIFHNHLDYLAKNGYEYEESTKNQATKEQQELLMKMLALSCKLEREFRCVELADLMTQNAVNLAIKYASRSRKLILAQKLSELAVEKAAELTATQVEEEEEEEDFRKKLNAGYSNTATEWSQPRFRNQVEEDAEDSGEADDEEKPEIHKPGQNSFSKSTNSSDVSAKSGAVTFSSQGRVNPFKVSASSKEPAMSMNSARSTNILDNMGKSSKKSTALSRTTNNEKSPIIKPLIPKPKPKQASAASYFQKRNSQTNKTEEVKEENLKNVLSETPAICPPQNTENQRPKTGFQMWLEENRSNILSDNPDFSDEADIIKEGMIRFRVLSTEERKVWANKAKGETASEGTEAKKRKRVVDESDETENQEEKAKENLNLSKKQKPLDFSTNQKLSAFAFKQE
notes: AND-1, human, full-length ORF from IMAGE cDNA clone 6514641; The tag is 2xStrepII-TEV; no TEV cleavage step is described; Only the SepB domain is visible in the map; also called AND-1 trimer; source: HEK293-F, transient co-transfection with the CMG subunits, co-purified as CMGA
stoichiometry N [1]: 3

B2: fork DNA (70T/70GC) (mixed)
DNA 1: CGTTTTACAACGTCGTGACTGGGCACTTGATCGGCCAACCTTTTTTTTTTTTTTTTTTTTTTTTTTTTTT
DNA 2: CAGGCAGGCAGGCAGGCAGGCAGGCAGGCAGGTTGGCCGATCAAGTGCCCAGTCACGACGTTGTAAAACG
binding result [2]: binds
